# From article PMC9483092
# Target: DYK-tagged transmembrane serine protease 13 (TMPRSS13) stably expressed in HEK cells (HEK-T) (human) (UniProt Q9BYE2)
# Assay: co-IP; competition: 20 µg recombinant spike S2 fragment added to HEK-T cells 2 h before IL4I1; read-out IL4I1 co-precipitated with TMPRSS13-DYK
# Chain of UniProt Q9BYE2 (Q9BYE2 other isoform, or with tags, fused parts or gaps): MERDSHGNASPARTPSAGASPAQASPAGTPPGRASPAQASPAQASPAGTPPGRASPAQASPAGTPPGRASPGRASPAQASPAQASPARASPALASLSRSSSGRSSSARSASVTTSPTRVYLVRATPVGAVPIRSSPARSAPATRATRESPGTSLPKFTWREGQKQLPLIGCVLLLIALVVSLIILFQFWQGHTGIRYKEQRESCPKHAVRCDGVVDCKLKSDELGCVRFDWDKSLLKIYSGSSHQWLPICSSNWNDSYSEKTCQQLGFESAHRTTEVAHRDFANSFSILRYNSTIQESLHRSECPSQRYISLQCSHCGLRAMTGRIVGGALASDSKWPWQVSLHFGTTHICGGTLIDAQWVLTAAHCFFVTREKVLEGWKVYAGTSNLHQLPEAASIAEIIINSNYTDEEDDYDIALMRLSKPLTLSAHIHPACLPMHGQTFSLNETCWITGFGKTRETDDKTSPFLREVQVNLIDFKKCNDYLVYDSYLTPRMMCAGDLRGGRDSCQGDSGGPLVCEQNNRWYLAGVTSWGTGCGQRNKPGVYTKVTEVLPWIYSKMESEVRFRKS
substance,measurement,value
recombinant S2 fragment of the SARS-CoV-2 spike protein (domain or fragment),percent decrease of IL4I1 binding to TMPRSS13 with 20 µg S2 per 80 µg IL4I1,50%
